Measurements published in publication PMC5942852 (PLoS Computational Biology, 2018).
Where a chain is given by its changes, count along the chain named. Names and notes keep the numbering of the source.

B1: WT 2J88 antibody (antibody, V domains shown)
VH: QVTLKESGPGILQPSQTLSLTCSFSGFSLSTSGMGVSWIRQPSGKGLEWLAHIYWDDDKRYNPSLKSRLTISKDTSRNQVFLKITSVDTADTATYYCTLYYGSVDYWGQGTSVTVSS
VL: DIQMTQSPASLSASVGETVTITCRASENIYSYLTWYQQKQGKSPQLLVYNAKTLAEGVPSRFSGSGSGTQFSLKISSLQPEDFGNYYCQHHYGTRTFGGGTRLEIK
notes: heavy-chain variable domain of the antibody in PDB 2J88; human IgG1 heavy constant region, from the vector pFUSEss-CHIg-hG1; light-chain variable domain of the antibody in PDB 2J88; human kappa constant region, from the vector pFUSEss-CLIg-hk; the abstract says one lambda and one kappa antibody were tested; Expressed as IgG (human IgG1 constant regions from pFUSE vectors) with the variable …
B2: WT 2J88 antibody Y38K (antibody, V domains shown)
VH: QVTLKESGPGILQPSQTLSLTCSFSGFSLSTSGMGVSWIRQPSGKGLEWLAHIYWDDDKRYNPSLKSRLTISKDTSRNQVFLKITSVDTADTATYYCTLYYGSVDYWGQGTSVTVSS
VL: B1 VL with Y30K
notes: as the heavy-chain variable domain of m1 (PDB 2J88); human IgG1 heavy constant region, from the vector pFUSEss-CHIg-hG1; as the light-chain variable domain of m1 (PDB 2J88) with Y38K in L1; human kappa constant region, from the vector pFUSEss-CLIg-hk; kappa inferred as for m1; IgG; Position 38 is most likely AHo numbering; source: 293F cells, transfected (pFUSE vectors), purified (rProtein A …)
B3: L14_7 (antibody, V domains shown)
VH: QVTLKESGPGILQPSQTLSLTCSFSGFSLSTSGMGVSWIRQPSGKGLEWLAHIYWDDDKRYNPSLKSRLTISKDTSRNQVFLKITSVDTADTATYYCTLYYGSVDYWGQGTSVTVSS
VL: B1 VL with A25S, E27R, N28D, Y30K, S31D, L33I, Q70E
notes: as the heavy-chain variable domain of m1 (PDB 2J88); human IgG1 heavy constant region, from the vector pFUSEss-CHIg-hG1; as the light-chain variable domain of m1 (PDB 2J88) with a designed L1 (cluster L1-11-2, six amino acid differences) and one difference in the L4 (DE) loop; human kappa constant region, from the vector pFUSEss-CLIg-hk; kappa inferred as for m1; IgG; Computational design (RAbD) …

How the values were obtained:
Bee Hyaluronidase [1] = biological target: T1, Bee Hyaluronidase (Apis mellifera (honeybee)); test: SPR; ProteOn XPR36 (Bio-Rad), GLC chip; IgG captured on amine-coupled anti-human capture antibody (Human Antibody Capture Kit), antigen as analyte; 1x HBS-EP+ pH 7.4 with BSA 1 mg/ml; equilibrium or kinetic Langmuir model; conditions: both partners purified
T1 construct: also called the main allergen in bee venom
T1 sequence (heavy, as listed by the source): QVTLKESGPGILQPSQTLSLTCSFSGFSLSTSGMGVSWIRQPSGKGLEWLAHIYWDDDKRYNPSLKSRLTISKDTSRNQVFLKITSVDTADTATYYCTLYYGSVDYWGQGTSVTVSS

Bee Hyaluronidase [2] = biological target: T1, Bee Hyaluronidase; test: SPR; Biacore 4000, CM5 chip; IgG captured on amine-coupled anti-human capture antibody (Human Antibody Capture Kit), antigen as analyte; 1x HBS-EP+ pH 7.4 with BSA 1 mg/ml; equilibrium or kinetic Langmuir model; apparent KD; conditions: both partners purified

Binder	Kd (Bee Hyaluronidase [1]) [nM]	Kd (Bee Hyaluronidase [2]) [nM]
B1	9.2	
B2		4.3
B3	0.77	
